Molecular target: WRN helicase core (531-950), lacking the WH domain (Homo sapiens, UniProt Q14191 531-950)
Test: HDX-MS; protein:ssDNA 1:2.5, no nucleotide analogue added; protection of D2 hairpin/motif IV peptide only after 4 h labelling; HDX-MS: WRN stock 16.66 uM in 15 mM Hepes, 150 mM NaCl, pH 7.3; 2 min equilibration with ligand, then 16-fold dilution into deuterated buffer, room temperature, 10 s to 4 h
Details: protein: recombinant; tags: N-terminal His-Zbasic tag, TEV-cleaved; single strand

Chain of WRN helicase core (531-950), lacking the WH domain (Q14191 531-950): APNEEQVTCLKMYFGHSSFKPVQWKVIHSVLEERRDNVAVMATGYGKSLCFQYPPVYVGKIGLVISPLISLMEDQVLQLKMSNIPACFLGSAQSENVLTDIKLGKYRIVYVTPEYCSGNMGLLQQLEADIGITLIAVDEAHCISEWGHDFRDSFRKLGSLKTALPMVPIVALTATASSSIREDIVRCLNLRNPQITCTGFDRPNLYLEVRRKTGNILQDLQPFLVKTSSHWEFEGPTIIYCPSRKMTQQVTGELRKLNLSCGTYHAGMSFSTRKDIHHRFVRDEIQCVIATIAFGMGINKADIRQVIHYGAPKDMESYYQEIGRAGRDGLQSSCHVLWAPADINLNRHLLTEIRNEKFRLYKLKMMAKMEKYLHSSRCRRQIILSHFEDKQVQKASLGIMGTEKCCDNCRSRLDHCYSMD

B1: 25-nt ssDNA (ssDNA)
DNA: CCAGGTCGATAGGTTCGAATTGGTT
- binding result: binds

Source: paper PMC7671478, “Structure of the helicase core of Werner helicase, a key target in microsatellite instability cancers”
